Assay results published in the supplement of paper PMC9112550, “Optimization of the antimicrobial peptide Bac7 by deep mutational scanning” (BMC Biology, 2022).

What follows are sequences tested on Escherichia coli TOP10 (assay: shrunken log2 fold change of peptide-encoding DNA abundance (4.5 h post-induction vs induction); higher = less antimicrobial activity (less host growth inhibition)). Details: time post-induction: 4.5 h; library: site-saturation at positions 5, 18, 19, 20.
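Note: peptides expressed intracellularly from a pBAD plasmid library in pooled LB shake-flask culture, induced with 0.3% L-arabinose, DNA abundance read by NGS, three biological replicates, DESeq2 with apeglm shrinkage.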

Point of comparison: RRIRTRPPRLPRPRPRPAEMPRP, “shrunken log2 fold change” value -0.253. Against it:
- RRIRYRPPRLPRPRPRPLKSPRP — within 0.2 log units, -0.365
- RRIRCRPPRLPRPRPRPFLGPRP — within 0.2 log units, -0.305
- RRIRQRPPRLPRPRPRPDGGPRP — higher, 0.255
- RRIRVRPPRLPRPRPRPWMHPRP — within 0.2 log units, -0.406
- RRIRQRPPRLPRPRPRPKCFPRP — within 0.2 log units, -0.25
- RRIRMRPPRLPRPRPRPRPFPRP — higher, 0.647
- RRIRNRPPRLPRPRPRPLYHPRP — lower, -0.941
- RRIRVRPPRLPRPRPRPFVVPRP — within 0.2 log units, -0.107
- RRIRCRPPRLPRPRPRPMCLPRP — within 0.2 log units, -0.201
- RRIRWRPPRLPRPRPRPCVIPRP — within 0.2 log units, -0.059
- RRIRPRPPRLPRPRPRPRWGPRP — higher, 0.509
- RRIRQRPPRLPRPRPRPHPNPRP — within 0.2 log units, -0.389
- RRIRHRPPRLPRPRPRPDIWPRP — within 0.2 log units, -0.11
- RRIRVRPPRLPRPRPRPGYDPRP — within 0.2 log units, -0.422
- RRIRWRPPRLPRPRPRPPTSPRP — higher, 0.291
- RRIRFRPPRLPRPRPRPEPKPRP — higher, 0.415
- RRIRYRPPRLPRPRPRPAMDPRP — within 0.2 log units, -0.256
- RRIRTRPPRLPRPRPRPYPWPRP — within 0.2 log units, -0.178
- RRIRQRPPRLPRPRPRPHAPPRP — higher, -0.0421
- RRIRARPPRLPRPRPRPNGDPRP — higher, 0.147
- RRIRDRPPRLPRPRPRPLWGPRP — higher, 0.294
- RRIRRRPPRLPRPRPRPWIKPRP — higher, 0.0892
- RRIRTRPPRLPRPRPRPCIQPRP — higher, 0.0196
- RRIRFRPPRLPRPRPRPARTPRP — higher, 0.332
- RRIRFRPPRLPRPRPRPRPVPRP — higher, 0.633
- RRIRMRPPRLPRPRPRPPTVPRP — higher, 0.593
- RRIRCRPPRLPRPRPRPHMLPRP — within 0.2 log units, -0.431
- RRIRVRPPRLPRPRPRPHPIPRP — higher, -0.0473
- RRIRNRPPRLPRPRPRPITWPRP — within 0.2 log units, -0.0587
- RRIRQRPPRLPRPRPRPFGRPRP — higher, 0.037
- RRIRTRPPRLPRPRPRPKNMPRP — within 0.2 log units, -0.359
- RRIRFRPPRLPRPRPRPLTVPRP — lower, -0.73
- RRIRHRPPRLPRPRPRPWMWPRP — higher, -0.0064
- RRIRLRPPRLPRPRPRPEDKPRP — higher, -0.0384
- RRIRTRPPRLPRPRPRPKPAPRP — higher, 0.0421
- RRIRARPPRLPRPRPRPCCSPRP — higher, 0.0121
- RRIRVRPPRLPRPRPRPPFTPRP — higher, 0.955
- RRIRERPPRLPRPRPRPSQVPRP — within 0.2 log units, -0.0606
- RRIRARPPRLPRPRPRPAREPRP — higher, 0.835
- RRIRQRPPRLPRPRPRPKVYPRP — within 0.2 log units, -0.177
- RRIRTRPPRLPRPRPRPDVAPRP — higher, -0.0174
- RRIRARPPRLPRPRPRPWIRPRP — within 0.2 log units, -0.132
- RRIRKRPPRLPRPRPRPMGVPRP — higher, 0.196
- RRIRHRPPRLPRPRPRPQLGPRP — higher, 0.375
- RRIRPRPPRLPRPRPRPICRPRP — within 0.2 log units, -0.276
- RRIRYRPPRLPRPRPRPIMCPRP — within 0.2 log units, -0.197
- RRIRWRPPRLPRPRPRPGGEPRP — higher, 0.107
- RRIRKRPPRLPRPRPRPQRGPRP — higher, -0.0338
- RRIRFRPPRLPRPRPRPKRIPRP — within 0.2 log units, -0.442
